In this assay the target is SP-1, serine protease from Clostridium ramosum DSM1402 (Clostridium ramosum DSM1402).

Starred links: 1 amine or outer side, 2 acyl side, 3 side chain; linkers in the order of their positions; H or OH if unused. Benzoyl(5-NH,2-NO2) = O=C(c1cc(N[*:1])ccc1[N+](=O)[O-])[*:2]

Take {ABZ}-IMAR-{Benzoyl(5-NH,2-NO2)-NH2} [ABZ-Ileu-Met-Ala-Arg-ANB-NH2]: the KM of steady-state cleavage of the substrate by SP-1 (20 nM SP-1, 0.05-2 mM substrate, 20 mM Tris, 300 mM NaCl, 1 mM CaCl2, pH 8, room temperature; Michaelis-Menten fit) came out at 0.000191 M.

The values above are taken from PMC8534766.
